According to paper PMC11094138, “The NTE domain of PTENα/β promotes cancer progression by interacting with WDR5 via its SSSRRSS motif” (Cell Death & Disease, 2024):

Experiments:
[1] = target: T1, WDR5^22–334 (human, UniProt P61964 22-334); assay: ITC; WDR5 (50 µM) in the cell, peptide or protein (750 µM) in the syringe, 20 injections; 25 °C; 20 mM Tris-HCl pH 7.5, 150 mM NaCl; single-site model; iTC-200; details: both partners purified
[2] = target: T1, WDR5^22–334; assay: ITC; competitive: PTENα-NTE^116–148 or PTENα-NTE^1–173 titrated into a 1:1 molar mixture of WDR5^22–334 and H3 1–15; 25 °C; 20 mM Tris-HCl pH 7.5, 150 mM NaCl; details: both partners purified

Row | binding result [1] | Kd [1] | Kd against a 1:1 mixture of WDR5^22–334 and H3 1–15 [2] | Binder
1 | binds |  |  | GSARAEVHLRK (source: lyophilized peptide (Shanghai Apeptide or GL Biochem)) [MLL1 WIN motif MLL1^3762–3772]
2 | binds |  |  | GSRRAEVHLRK (source: lyophilized peptide (Shanghai Apeptide or GL Biochem)) [MLL1^3762–3772_A3764R]
3 |  | 3.8 µM | 32 ± 3 µM | SSRRSSHYPAAVQSQAAAERGASATAKSRAISI (PTENα (PTEN-L), the N-terminally extended variant of human PTEN (576 residues); residues 116–148 of its N-terminal extension; also called synthetic PTENα-NTE^116–148 peptide; source: synthetic peptide) [PTENα-NTE^116–148 peptide]
